This data set in a line: soluble on expression in E. coli; label from the status in PepcDB or PDB records.
Turning to “MGSDKIHHHHHHMKFPGQRKSKHYFPVKNRDPLLAQLTLQPQHISTHISGIDQTLVDIEAKVGDDLLSRYALPKGNSTLIDDEKAHQLYTELKSSELISDEFAGGTIGNTVHNYSILADDRSVLFGVMSNHIEVGSYAYRYLCNTSSKVDLNFLQPVDGPIGRCFTLISECGERTFAISKGSMDKLTPEYIDQEIVQTSSALVLTAYLMRASGGDKITDAALKAIEYAKAADVPVVLTLGTRFLIEEDPQWWIDFIKENVTILAMNEDEGEALTGFKDPLSASNAALEWCDMVLTTAGPLGLYTAGYTEDSEKRETSHTLLPGAIPEFNRYEFSRPKLKRDCQTPIKVFAHISPYMGGPEIIRNTNGAGDGALAALLHDLASNTYHKANVPGSSKHKRDGLCYSSFSQICKYANRVAYEVLAQHSPRLSRGLPEREDSLEEAYWER”, the “soluble on expression in E. coli” value is “not soluble”.
As for “MSLNNHKHARLTRLGRALLVNRVMQQNWTMRQASQAAGVSLRTGYKWLARFRSEGLDGLLDRSSRPHRSPKACAPEQVEHFAQQRRQRLPLWRIAREAGRSLATVARYMERIGLSRLASLEPPAPVRRYERASPGELLHIDTKRLGRIRGVGHRITGDRAQNRNRGIGWDAVHLAIDDFSRVSFARILDDEGGDQCAEFLHQATAYYASLGVRIDRVMTDNGSGYVSRTFRAVCVELGIRHIRTRPYTPKTNGKAERLVQTCLREWAYARPYTSSAERQAALQPFIDRYNWCRPHSALGHQPPITRIPDVNNLLRIDSEGHHHHHH”, the “soluble on expression in E. coli” value is “not soluble”.
On to “MRVKAMASFSPFDVTLWYSTAAPAPLTEPLSGRIQADVCIVGAGYTGLTTALELAKAGVDVVLLERQEIGFGGSGRNAGHCTPTFTHYSLPELRKMLGETWAERLIERQTRANDRVSHMIRDYRINCEWVQNGYVMGAPHKGAIEEIRRKVETYNAVGAKTRLLGRDEVAAITGSPRFHGGWLHEEAGHLNPLAYARGLGGAVIQERGRIFTGSSVTGCERNATGGWKVRTEHGEVIASKVIFTTGAYTVGGWPKLDQTFKIQRVFVAATQILSEETRRTVLPRNTTIHDGRGDIYVYKYNAEGRIVASMFPMGRRGRDIVYTRQVMSDRLKWLHPQISADIRWDYFWFGELDMQYRTVPRLYDLSPGVVALTGLSGRGVPTGSMLGSILSEWALGKPENELALKVEPLKSAPFYMSFAPAMTLRYYRMRDNIATRLAGMELPPHALEHHHHHH”, for which the “soluble on expression in E. coli” value is on record as “not soluble”.
Take “SNAMSRAKKWVQYFLSHRHVTMELIHKIDEAHYDYKPTPTSMTAKQLATHMLFSFYNFANTAKHGDPSLFRQKIEEPETNLAKLAETYTEKTRQLIESMSDDDFDRTLDLTAIFGTQMSTAQFLQLAMDHEIHHKGQLFVYVRGMGHTDLPLFVKRG”: the “soluble on expression in E. coli” value is given as “soluble”.
Consider “MSISKDSRIAIIGAGPAGLAAGMYLEQAGFHDYTILERTDHVGGKCHSPNYHGRRYEMGAIMGVPSYDTIQEIMDRTGDKVDGPKLRREFLHEDGEIYVPEKDPVRGPQVMAAVQKLGQLLATKYQGYDANGHYNKVHEDLMLPFDEFLALNGCEAARDLWINPFTAFGYGHFDNVPAAYVLKYLDFVTMMSFAKGDLWTWADGTQAMFEHLNATLEHPAERNVDITRITREDGKVHIHTTDWDRESDVLVLTVPLEKFLDYSDADDDEREYFSKIIHQQYMVDACLVKEYPTISGYVPDNMRPERLGHVMVYYHRWADDPHQIITTYLLRNHPDYADKTQEECRQMVLDDMETFGHPVEKIIEEQTWYYFPHVSSEDYKAGWYEKVEGMQGRRNTFYAGEIMSFGNFDEVCHYSKDLVTRFFV”, for which the “soluble on expression in E. coli” value is “soluble”.
For “MRIALLVKQARLQQGVRQIDLAERLGITLRTFRRIEAGSADGVSLRDFMLVVWGLGVSERLFQGLRDDESFSVEQLEAADRKRVRLPRNRPEDF”, the “soluble on expression in E. coli” value is listed as “not soluble”.
As for “MSNAREIRSKVQSVKNTQKITGAMELVAASKMRGAIVKMNNVRPYVESANTIIKNVTAASIDYPNPYLFDRDVKRVGYIVISTDRGLCGGLNINLFKHVLKEIKNNIEDRVGVDVCVIGSKAENFFAKLKDVNIVATAHYNDKDKEGSIRAIGGAVKVMLDKFTAGEIDRLYMSSNQFVSTIKQRPRLQTLLPIQDIFSAEEIKANKEKATKGHWDYIYERDIEEVLNALFIRYIEAQVRGAILENAACEQAARMMAMKNATDNASDIIDQLKLDYNKVRQAMITQELAEICSGAAAV”, the “soluble on expression in E. coli” value is listed as “not soluble”.
As to “MGSDKIHHHHHHMMFQEQIDLLQQKGLYRSLKSVGYIDRQYIEVENKRCTNYTSNDYLGLGQIAFDKDDFERFMRKYSYHLSSSRLISGSSTAYEEIETMLAGWLGYSACTILNSGYDANLALFNIFKNTNCVVFSDQENHASIIDGIKLSGLEKVIYKHLDIADLEKRLEKYPNQNIPKIIISDSVFSTNGDVVDIGQLVSLKHKYNATLILDVSHSFGIENYSNYQGVDILTSSLSKACGAYGGVILSSNDVKDMLINHGRPLIYSSSLPIYNLYFIKRNIEKLINADDRRTKLNSLSKYFNQKLKALNVNYNSSNSPIKFIEFDDIEAAENIHQTLLKHHVFTSYLRYPTVTKPMLRISLSYFHTEQDIDRLFEILHQED”, the “soluble on expression in E. coli” value is listed as “not soluble”.
The same measure for “SLMVLAMESRVAPEIPGLIQPGNVTQDLKMMVCKLLNSPKPTKTFPGSQPVSFQHSDVEEKLLAHDYYVCEKTDGLRVLMFIVINPVTGEQGCFMIDRENNYYLVNGFRFPRLPQKKKEELLETLQDGTLLDGELVIQTNPMTKLQELRYLMFDCLAINGRCLTQSPTSSRLAHLGKEFFKPYFDLRAAYPNRCTTFPFKISMKHMDFSYQLVKVAKSLDKLPHLSDGLIFTPVKAPYTAGGKDSLLLKWKPEQENTVDFKLILDIPMVEDPSLPKDDRNRWYYNYDVKPVFSLYVWQGGADVNSRLKHFDQPFDRKEFEILERTYRKFAELSVSDEEWQNLKNLEQPLNGRIVECAKNQETGAWEMLRFRDDKLNGNHTSVVQKVLESINDSVSLEDLEEIVGDIKRCWDERRANMAGGSGRPLPSQSQNATLSTSKPVHSQPPSNDKEPKYVDEDDWSD”: “soluble”; for “MRVLALSAVFLVASIIGMPAVAKEWQENKSWNAHFTEHKSQGVVVLWNENKQQGFTNNLKRANQAFLPASTFKIPNSLIALDLGVVKDEHQVFKWDGQTRDIATWNRDHNLITAMKYSVVPVYQEFARQIGEARMSKMLHAFDYGNEDISGNVDSFWLDGGIRISATEQISFLRKLYHNKLHVSERSQRIVKQAMLTEANGDYIIRAKTGYSTRIEPKIGWWVGWVELDDNVWFFAMNMDMPTSDGLGLRQAITKEVLKQEKIIP”: “soluble”; for “MAVAGAVSGEPLVHWCTQQLRKTFGLDVSEEIIQYVLSIESAEEIREYVTDLLQGNEGKKGQFIEELITKWQKNDQELISDPLQQCFKKDEILDGQKSGDHLKRGRKKGRNRQEVPAFTEPDTTAEVKTPFDLAKAQENSNSVKKKTKFVNLYTREGQDRLAVLLPGRHPCDCLGQKHKLINNCLICGRIVCEQEGSGPCLFCGTLVCTHEEQDILQRDSNKSQKLLKKLMSGVENSGKVDISTKDLLPHQELRIKSGLEKAIKHKDKLLEFDRTSIRRTQVIDDESDYFASDSNQWLSKLERETLQKREEELRELRHASRLSKKVTIDFAGRKILEEENSLAEYHSRLDETIQAIANGTLNQPLTKLDRSSEEPLGVLVNPNMYQSPPQWVDHTGAASQKKAFRSSGFGLEFNSFQHQLRIQDQEFQEGFDGGWCLSVHQPWASLLVRGIKRVEGRSWYTPHRGRLWIAATAKKPSPQEVSELQATYRLLRGKDVEFPNDYPSGCLLGCVDLIDCLSQKQFKEQFPDISQESDSPFVFICKNPQEMVVKFPIKGNPKIWKLDSKIHQGAKKGLMKQNKAV”: “soluble”.
The same measure for “TAMRALIESLPTITEGEGRFVPYNDDEGGEEENVCTTEHVEMAKAKNWKVLTSWGEPFPGITALISIEGESEYSVYAQDGILYLSGMEQGLPVQ”: “not soluble”; for “MARQKDTFYFEGFRRSADYACQAAKLLSEVMHDFNPGQLRERMDSMHAIEKSADEVRHDMMDELVTAFITPFDREDIDELGHVLDDVTDSIEGVLNRMYYDNVTDMRDDAVQMSDMVVRATESICELVNELPRFRHSKTLRELVFAINTIETDADHLFIESMRTLHTTCTDPLQVFAWHDVYRHLEQCSDDCERVANTIDSIVMKNSLEHHHHHH”: “soluble”.

The values above are taken from the DeepSol protein solubility set.
